The data set deals with the molecule itself. As to the kind of experiment: SAXS; Sav1866-SMALPs from the 12 ml SEC fraction, undiluted sample, 20 mM Tris pH 8, 150 mM NaCl; DAMMIF models with P1 and P2 symmetry fitted with the crystal structure 2HYD.

By stoichiometry N is commonly meant the number of molecules, sites or subunits per partner or assembly.

B1: Staphylococcus aureus ABC transporter Sav1866 in styrene-maleic acid lipid particles (natural protein)
chain: MIKRYLQFVKPYKYRIFATIIVGIIKFGIPMLIPLLIKYAIDGVINNHALTTDEKVHHLTIAIGIALFIFVIVRPPIEFIRQYLAQWTSNKILYDIRKKLYNHLQALSARFYANNQVGQVISRVINDVEQTKDFILTGLMNIWLDCITIIIALSIMFFLDVKLTLAALFIFPFYILTVYVFFGRLRKLTRERSQALAEVQGFLHERVQGISVVKSFAIEDNEAKNFDKKNTNFLTRALKHTRWNAYSFAAINTVTDIGPIIVIGVGAYLAISGSITVGTLAAFVGYLELLFGPLRRLVASFTTLTQSFASMDRVFQLIDEDYDIKNGVGAQPIEIKQGRIDIDHVSFQYNDNEAPILKDINLSIEKGETVAFVGMSGGGKSTLINLIPRFYDVTSGQILIDGHNIKDFLTGSLRNQIGLVQQDNILFSDTVKENILLGRPTATDEEVVEAAKMANAHDFIMNLPQGYDTEVGERGVKLSGGQKQRLSIARIFLNNPPILILDEATSALDLESESIIQEALDVLSKDRTTLIVAHRLSTITHADKIVVIENGHIVETGTHRELIAKQGAYEHLYSIQNL
notes: Sav1866, ABC transporter (half-transporter, homodimer) of Staphylococcus aureus; expressed from pet-19b:sav1866; M from chemical composition 64 863 Da; the undigested band at 65 kDa is called full-length Sav1866; Embedded in a SMALP nanoparticle with E. coli lipids; The DNA construct was a gift; its exact limits and linker are not described; also called Sav1866-SMALPs; Sav1866-10His; source: E. …
For B1, the “stoichiometry N” value is 2.

The values above are taken from paper PMC8883494, “Conformational trapping of an ABC transporter in polymer lipid nanoparticles” (Biochemical Journal, 2021).
